± gives the half width of the 95% confidence interval.

Data set [1] is described as follows: folding stability dG unfold from chymotrypsin proteolysis; higher = more stable. In outline:
(§1)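 Only designs with AlphaFold2 dimer inter-PAE above 15 were retained; each was a mini-protein under 80 residues with no cysteine, in a PA-tagged cDNA display construct. After digestion with trypsin and chymotrypsin and sequencing, K50 was inferred by Bayesian fitting of counts, and unfolding free energy was derived per protease or combined against a sequence-predicted unfolded-state K50 and a shared folded-state K50.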

The nature of data set [2]: folding stability dG unfold from trypsin proteolysis; higher = more stable. In a few lines:
as §1

Data set [3] in a line: folding stability dG unfold (combined trypsin and chymotrypsin); higher = more stable. In a few lines: as §1

As to “SAGGSAGGSAGVIDKENDRWYITQETPGGEPKTIPIPWDDIPDLPPENVKEVELMPPDDISAGGSAGGSAGG [r11_779_TrROS]”, the “folding stability dG unfold” value in data set [1] is -0.00556 ± 0.056 kcal/mol; in data set [2], -0.179 ± 0.031 kcal/mol; in data set [3], -0.0024 ± 0.1 kcal/mol.
In the case of “SAGGSAGGSAGVKEGEEIEITLENGKTFTAKIEYDKETGYYKITIKDKKTNKEYEFVFKVSAGGSAGGSAGG [r11_960_TrROS_Hall]”, the entries for the “folding stability dG unfold” value in data set [1], in data set [2] and in data set [3] were 4.39 ± 0.17 kcal/mol, 2.62 ± 0.3 kcal/mol and 4.04 ± 0.22 kcal/mol, respectively.
On to “SAGGSAGGSAGVLSLEGVVSTEEFEDPSSSNKTLVITLPGGERVVVNLPSSPSSVVTRLVSAGGSAGGSAGG [r17_182_JUSTAS]”, for which the “folding stability dG unfold” value in data set [1] is 0.467 ± 0.066 kcal/mol; in data set [2], 0.215 ± 0.028 kcal/mol; in data set [3] it was 0.422 ± 0.074 kcal/mol.
The matching figures for “SAGGSAGGSAGVNPNLPNYSVVPTTVTVKVLETFTDPQGNSYTREFTLEVETLIVNPPLLSAGGSAGGSAGG [r17_523_JUSTAS]”: 3.91 ± 0.084 kcal/mol, 2.89 ± 0.12 kcal/mol and 3.59 ± 0.12 kcal/mol.
On to “SAGGSAGGSAGVSPNEDVKVEVLEVKPDPETGTYTVLVKDPRTGEERTLTLTPEELAKLLSAGGSAGGSAGG [r11_894_JUSTAS]”, for which the “folding stability dG unfold” value in data set [1] turned out to be 4.53 ± 0.073 kcal/mol; in data set [2], 4.42 ± 0.19 kcal/mol; in data set [3], 4.56 ± 0.079 kcal/mol.
In the case of “SAGGSAGGSAGVSTTPDGVLVIKVKDPNTGKYTEIKVPTSRPEEAEKLKEKALEEGLELESAGGSAGGSAGG [r11_538_JUSTAS]”, the “folding stability dG unfold” value turned out to be 1.49 ± 0.022 kcal/mol in data set [1], 0.708 ± 0.038 kcal/mol in data set [2] and 1.2 ± 0.053 kcal/mol in data set [3].
The matching figures for “SAGGSAGGSAGVTVSLPDGRVVTEVTTLPDGTVVITYTKDGKKYTTTLNGSAPAPTPTLASAGGSAGGSAGG [r17_421_JUSTAS]”: 2.58 ± 0.035 kcal/mol, 2.42 ± 0.083 kcal/mol and 2.52 ± 0.086 kcal/mol.
On the same counts, the results for “SAGGSAGGSAGWFTVTMMFLFPNGWAIKITWTFRMDENGNLKLEWEVEIEPVPPLKPGDPSAGGSAGGSAGG [r11_728_TrROS]” are 6.21 ± 0.35 kcal/mol, 4.38 ± 0.51 kcal/mol and more than 6 kcal/mol.
The matching figures for “SAGGSAGGSAGWIDPEDIKKIQHERNPNNGRGEMRLEFENGKPVEIEFKSPEEALDWLLKSAGGSAGGSAGG [r11_339_TrROS]”: -0.156 ± 0.23 kcal/mol, -0.547 ± 0.15 kcal/mol and -0.185 ± 0.13 kcal/mol.
For “SAGGSAGGSAGWIWMKVTEVNPDDGTIKIKFDGQKIKIPAKNMKIREDGDYVEIEIPEDDSAGGSAGGSAGG [r17_403_TrROS]”, the “folding stability dG unfold” value in data set [1] came out at 0.242 ± 0.22 kcal/mol; in data set [2], 0.137 ± 0.16 kcal/mol; in data set [3] it was 0.228 ± 0.11 kcal/mol.
As to “SAGGSAGGSAGWLKLKFEFTFMIIIWNDDGNNELVMIPIRIRITMTIPPIKYDPDGKLKLSAGGSAGGSAGG [r11_558_TrROS]”, the “folding stability dG unfold” value in data set [1] is 3.72 ± 0.067 kcal/mol; in data set [2] it was 2.87 ± 0.22 kcal/mol; in data set [3], 3.51 ± 0.22 kcal/mol.
For “SAGGSAGGSAGWRAKVYPPGNGEPIGTIEIPKDWTPSQIKEIADDLQKKFPPGWRVEIEDSAGGSAGGSAGG [r11_1081_TrROS]”, the “folding stability dG unfold” value in data set [1] was determined as 0.904 ± 0.093 kcal/mol; in data set [2], 1.72 ± 0.051 kcal/mol; in data set [3], 1.38 ± 0.12 kcal/mol.
On the same counts, the results for “SAGGSAGGSAGYIWIPAKDFAKYIAEEHEEKGYQINIPVEVRPDNWVWIDIEIQPLKPGQSAGGSAGGSAGG [r11_214_TrROS]” are 1.3 ± 0.096 kcal/mol, 0.644 ± 0.048 kcal/mol and 1.04 ± 0.086 kcal/mol.
Turning to “SAGGSAGGSAGYLYFISIEFNLQWNGDGNLQLQPKIEIQRIEIPPPPPKWKYDGNKPKYDSAGGSAGGSAGG [r17_418_TrROS]”, the figures for the “folding stability dG unfold” value in data set [1], in data set [2] and in data set [3] were 3.44 ± 0.048 kcal/mol, 2.44 ± 0.12 kcal/mol and 3.04 ± 0.17 kcal/mol, respectively.
For the sequence “SAGGSAGGSAIKAPPNSKIIKIEVKPLPNGDLLVEITIIDVPPDDSIGSGKYKILIKLEKGGSAGGSAGGSA [r18_273_TrMRF]”, the entries for the “folding stability dG unfold” value in data set [1], in data set [2] and in data set [3] were 3.1 ± 0.16 kcal/mol, 2.81 ± 0.3 kcal/mol and 3.02 ± 0.26 kcal/mol, respectively.
For “SAGGSAGGSAIKEIVKRIEKLFGVDVEPEQEEREVNGGRYPTLPVTVKVPPNANSPALKEASAGGSAGGSAG [r3_427_TrROS]”, the figures for the “folding stability dG unfold” value in data set [1], in data set [2] and in data set [3] were 0.636 ± 0.093 kcal/mol, -0.555 ± 0.4 kcal/mol and 0.021 ± 0.24 kcal/mol, respectively.
On the same counts, the results for “SAGGSAGGSAIKPGEKIKILVLVKDENGKEYLVKMEIEKLPDGKIKIKKVEIMSLEELKKLSAGGSAGGSAG [r3_212_TrROS_Hall]” are 2.38 ± 0.029 kcal/mol, 1.84 ± 0.043 kcal/mol and 2.2 ± 0.13 kcal/mol.
As for “SAGGSAGGSAIPKAPVTVTVTTADGRPALATVEYYPDGVLVTVHYGDKTVTAWVAPADISASAGGSAGGSAG [r3_373_TrMRF]”, the “folding stability dG unfold” value came to 2.19 ± 0.11 kcal/mol in data set [1], 0.864 ± 0.053 kcal/mol in data set [2] and 1.54 ± 0.17 kcal/mol in data set [3].
In the case of “SAGGSAGGSAISIMIDDPDDLELAEEIANNIRDHFPDFPIKVEVERMPGNPDYYMIRVEWESAGGSAGGSAG [r3_131_TrROS]”, the entries for the “folding stability dG unfold” value in data set [1], in data set [2] and in data set [3] were 1.52 ± 0.042 kcal/mol, 1.79 ± 0.073 kcal/mol and 1.66 ± 0.096 kcal/mol, respectively.
Take “SAGGSAGGSAKAVEFYFPAEEYTVEEIIDRLVKELGVPKENIKLAKVEPLENGELKVIVEIPSAGGSAGGSA [r18_118_TrMRF]”: the “folding stability dG unfold” value turned out to be 3.21 ± 0.12 kcal/mol in data set [1], 2.82 ± 0.11 kcal/mol in data set [2] and 3.1 ± 0.092 kcal/mol in data set [3].
“SAGGSAGGSAKEIDFKFRSPGNGEEFPFRVEIDEFDPDDGPLLIKVEMPNGKPHTFPADDILSAGGSAGGSA [r18_334_TrROS]”: the entries for the “folding stability dG unfold” value in data set [1], in data set [2] and in data set [3] were 0.76 ± 0.15 kcal/mol, 0.101 ± 0.086 kcal/mol and 0.503 ± 0.11 kcal/mol, respectively.
The matching figures for “SAGGSAGGSAKEILIVMTPEEAEELKKELLEKLKELAKKLKIKEIKIKVYLVKYDKNGKKVSAGGSAGGSAG [r3_89_TrROS_Hall]”: 2.66 ± 0.091 kcal/mol, 1.9 ± 0.12 kcal/mol and 2.26 ± 0.28 kcal/mol.
As for “SAGGSAGGSAKELLKNIEKVEIIKNKKTNKYTIRIKNKNGKVYEFEFKSLEEALKKAGIKPSAGGSAGGSAG [r3_36_TrROS_Hall]”, the entries for the “folding stability dG unfold” value in data set [1], in data set [2] and in data set [3] were 3.19 ± 0.038 kcal/mol, 2.24 ± 0.041 kcal/mol and 2.93 ± 0.073 kcal/mol, respectively.
The matching figures for “SAGGSAGGSAKETLRMELELEIDGVVVRVEAEVELDPETNELHIRVKVEVEPLPPPLPPGLESAGGSAGGSA [r18_16_TrROS_Hall]”: 2.53 ± 0.34 kcal/mol, 1.2 ± 0.2 kcal/mol and 2.32 ± 0.33 kcal/mol.
As to “SAGGSAGGSAKIKIKVKPGEKVRIYNKKTKKEIAEVEVVEVKEGKIVVKLKNGKLYEIEIEPSAGGSAGGSA [r18_363_TrROS_Hall]”, the “folding stability dG unfold” value in data set [1] was 2.36 ± 0.06 kcal/mol; in data set [2] it was 1.67 ± 0.033 kcal/mol; in data set [3] it was 2.18 ± 0.052 kcal/mol.
On the same counts, the results for “SAGGSAGGSAKIKPGEKVEITLKDGSKVIIEKKEDGKYLARIIDKKTNEVKTVPLDKIKLVSAGGSAGGSAG [r3_213_TrROS_Hall]” are 1.08 ± 0.046 kcal/mol, 0.99 ± 0.057 kcal/mol and 1.13 ± 0.14 kcal/mol.
Regarding “SAGGSAGGSAKIKVLIKITNKDGKKKEILLEAETEEEALEAAKKLAEKEINGKKYKIEIKPLSAGGSAGGSA [r18_457_TrROS_Hall]”, the “folding stability dG unfold” value is 2.08 ± 0.044 kcal/mol in data set [1], 1.83 ± 0.074 kcal/mol in data set [2] and 1.96 ± 0.11 kcal/mol in data set [3].
On to “SAGGSAGGSAKIRVGGEEIELPPGKPVMFRFPENGYMIKITIKPDPKENKWKIDELKVYPMDSAGGSAGGSA [r18_222_TrROS]”, for which the “folding stability dG unfold” value in data set [1] was 1.83 ± 0.16 kcal/mol; in data set [2] it was 1.13 ± 0.089 kcal/mol; in data set [3] it was 1.46 ± 0.19 kcal/mol.
As for “SAGGSAGGSAKKITIYLPNAEVVEVEYDEETDVITIRVKNEDGSEYEFRFYPDGSVEIRPVSAGGSAGGSAG [r3_348_TrROS_Hall]”, the “folding stability dG unfold” value in data set [1] is 3.65 ± 0.15 kcal/mol; in data set [2], 2.95 ± 0.16 kcal/mol; in data set [3], 3.4 ± 0.14 kcal/mol.
For “SAGGSAGGSAKKKVIVIELPEDMTLEEALALAKALAPPGAEIVIRRDGKLYVIKIEDPEKLSAGGSAGGSAG [r3_50_TrROS_Hall]”, the “folding stability dG unfold” value in data set [1] stood at 2.82 ± 0.084 kcal/mol; in data set [2], 2.24 ± 0.11 kcal/mol; in data set [3], 2.55 ± 0.17 kcal/mol.
On the same counts, the results for “SAGGSAGGSAKKKVKIKLEFDKETNTLRIEVEDEDTGEKTEIEITIKLEPPPPPPLPEELKKSAGGSAGGSA [r18_361_TrROS_Hall]” are 1.42 ± 0.22 kcal/mol, 1.72 ± 0.18 kcal/mol and 1.73 ± 0.61 kcal/mol.
For the sequence “SAGGSAGGSAKKKVKVVEIKITYDKEKNEYYIEAKVYNENTGETKTVRIKVKLKPGQKLKFSAGGSAGGSAG [r3_1_TrROS_Hall]”, the “folding stability dG unfold” value in data set [1] is 1.71 ± 0.066 kcal/mol; in data set [2], 1.65 ± 0.041 kcal/mol; in data set [3], 1.72 ± 0.087 kcal/mol.
With “SAGGSAGGSAKKTLTVTVKAEPSEGAPAIAKEVAEKLGLPDAKVLSISYDPETGELTITFEYSAGGSAGGSA [r18_481_TrMRF]”, the “folding stability dG unfold” value amounted to 4.56 ± 0.097 kcal/mol in data set [1], 4.21 ± 0.2 kcal/mol in data set [2] and 4.61 ± 0.14 kcal/mol in data set [3].
For the sequence “SAGGSAGGSAKPDKPIKVKVTLYNPATGEKTVVEVEVPPHVKPEEVAEALRKEFGAARVEVESAGGSAGGSA [r18_58_TrMRF]”, the figures for the “folding stability dG unfold” value in data set [1], in data set [2] and in data set [3] were 3.112 ± 0.03 kcal/mol, 3.05 ± 0.086 kcal/mol and 3.08 ± 0.057 kcal/mol, respectively.
For “SAGGSAGGSAKPEAVAPAVFTLDGVPYLVPVRVLEAGLSPDQKLLVLGTLPNGEPFLAVFDASAGGSAGGSA [r18_54_TrMRF]”, the “folding stability dG unfold” value in data set [1] amounted to 1.57 ± 0.082 kcal/mol; in data set [2], 0.744 ± 0.058 kcal/mol; in data set [3], 1.27 ± 0.12 kcal/mol.

The values are drawn from the supplement of paper PMC12764529.
